In the nanobody polyreactivity screen of Harvey et al. (2022):

Assay: yeast display, Sf9 membrane polyspecificity reagent, FACS + sequencing; frameworks hold sequencing errors
Method in brief: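 Polyreactivity labels are assigned by the sorting gate from which each nanobody was recovered. The gates were low and high (top ~1%), set on anti-HA fluorescence for expression and streptavidin fluorescence for reagent binding. Before sorting, galactose-induced (36–48 hours) yeast display cells were stained for 1 hour at 4 °C with 10% biotinylated, detergent-solubilized Sf9 membrane reagent.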

| Sequence | polyreactivity (PSR sort gate) |
| --- | --- |
| QVQLVESGGGLVQAGGSLRLSCAASGSTCDRYAMGWYRQAPGKERELVAAITDTGGSTYYADSVKGRFTISRDNAKNTVYLQMNSLKPEDTAVFYCAKGYFWSSYVSSRYGSWGQGTQVTVSS | high polyreactivity |
| QVQLVESGGGLVQAGGSLRLSCAASGSTCRPYVMGWFRQAPGKERELVAAISWRGGTTYYADSVKGRFTISRDNAKNTVSLQMNSLKPEDTAVYYCAARGDQGVPVARRYDYWGQGSQVTVSS | high polyreactivity |
| QVQLVESGGGLVQAGGSLRLSCAASGSTCYKYAMGWYRKAPGKERELVAVITKSGGSTYYADSVKGRFTISRDNAKNPVYLQMNSLTPEDTAVYYCGTVQSGRVRTYDYCGQGTQVTVSS | high polyreactivity |
| QVQLVESGGGLVQAGGSLRLSCAASGSTFAANAMGWYRQAPGKERELVAAITGSGGGTYYADSVKGRFTISRDNAKNTVYLQMNSLKPEDTAVYYCNTYYYWQYDWGQGTQVTVSS | high polyreactivity |
| QVQLVESGGGLVQAGGSLRLSCAASGSTFAANAMGWYRQAPGKERELVAGISESGDRTYADSVKGRFTISRDNPKNTVYLQMNSLKPEDTAVYYCNVGANVYLLYFPSRGGVYDYGYWGQGTQVTVSS | low polyreactivity |
| QVQLVESGGGLVQAGGSLRLSCAASGSTFAANPMGWYRQAPGKERELVAAITSSGGSTYYADSVKGRFTISRDNAKNTVYLQMNSLKPEDTEVYYCNKDIERYVRIYDSWGQGTQVTVSS | low polyreactivity |
| QVQLVESGGGLVQAGGSLRLSCAASGSTFAASVMGWYRQAPVKERELVAAISTSGGGTYYADSVKGRFTISRDNAKNTVYLQMNSLIPEDTAVYYCAADYGSGSVSYDYWGQGTQVTVSS | low polyreactivity |
| QVQLVESGGGLVQAGGSLRLSCAASGSTFAAYVMGWYRQAPGKERELVAAISTSGGRTYYADSVKGRFTISRDNAMNTVYLQMNSLIPEDTAVYYCAKKRINSRKYDYWGQGTQVNVSS | low polyreactivity |
| QVQLVESGGGLVQAGGSLRLSCAASGSTFAEYAMGWYRQAPGKERELVAAIRWSGGSTSYADSVKGRFTISRDNAKNTVYLQMNSLKPEDTAVYYCAAERFWYDGEVKLYVLSYYWGQGTQVTVSS | low polyreactivity |
| QVQLVESGGGLVQAGGSLRLSCAASGSTFAFYAMGWYRQAPGKEREFVAAITWDGGTTYYADSVKGRFTISLDNAKNTVYLQMNSLKPEDTAVYYCATQYLSYLYAGRYDYWGQGTQVTVSS | low polyreactivity |
| QVQLVESGGGLVQAGGSLRLSCAASGSTFAFYAMGWYRQAPGTERELVAAIRSGGSTNYADSVKGRFTISRDNAKNTVYLQMNSLKPEDTAVYYCAARESDPGSHSVYREDDYWGQGTQVTVSS | low polyreactivity |
| QVQLVESGGGLVQAGGSLRLSCAASGSTFAGNAMGWYIQAPGKERELVAAISSSGAGTYYADSVKGRFTISRDNAKNTVYLLINSLKPADTAVYYCNVGSRALRRRVRSVSFDYWGQGTQVSVSS | low polyreactivity |
| QVQLVESGGGLVQAGGSLRLSCAASGSTFAGNAMGWYRQAPGKERELVAAITWSGGNTNYADSVKGRFTISRDNAKNTVYLQMNSLKPEDTAVYYCASDFSGSLAYDYWGQGTQVTVSS | low polyreactivity |
| QVQLVESGGGLVQAGGSLRLSCAASGSTFAGNEMGWYRQAPGKERELVAAITFSGGRTDYADSVKGRFTISRDNAKNTVYFQINCLKPEDTAVYDCAAPADDTVHYQNYYWGQGTQVSVSS | low polyreactivity |
| QVQLVESGGGLVQAGGSLRLSCAASGSTFAGNGMGWYRQAPGKEGELVAGIDVTGGSTYYADSVKGRFTISRDNAKKTVDLQMNSLKPEDTAVYYCYARYVYHSSFAGFDYWGQGTQVTVSS | low polyreactivity |
| QVQLVESGGGLVQAGGSLRLSCAASGSTFAGYAMGWYIQAPGKERELVASIRSGGSTNYADSVKGRFSISRDNAKNTVYLQMNSLKPEDTAVYYCAARPDQKRYDYWGQGTQVTVSS | low polyreactivity |
| QVQLVESGGGLVQAGGSLRLSCAASGSTFAGYAMGWYRQAPGKERELVATITYSGGTTYYADSVKGRFTISRDTAKNTVFLQMKSLKPEDTAVYYCDNKASYWWGFEYWGQGTQVTVSS | low polyreactivity |
| QVQLVESGGGLVQAGGSLRLSCAASGSTFAGYAMGWYRQEPGKERELVAAISGSGGTTYYADSVKGRFTISRDNAKNTVYLQMNSLKPEDNAVYYCAALRGRYYGGLGDYWGQGTQVTVSS | high polyreactivity |
| QVQLVESGGGLVQAGGSLRLSCAASGSTFAGYAMGWYRQPPGKERELVAAISYSGGTTYYADSVKGRFTISRDNAKNTVYLQMNSLKPEDTAVYYCAARKKFKTPSYDMYYWGQGTQVTVSS | high polyreactivity |
| QVQLVESGGGLVQAGGSLRLSCAASGSTFAINAMGWYRQAPGTERELVAAIRYSTGRTYYADSVKGRFTISRDNAKNTVYLQMNSLKPEDTAVYYCAALGFTKYGSRFDYWGQGTQVTVSS | high polyreactivity |
| QVQLVESGGGLVQAGGSLRLSCAASGSTFAIYAMGWYRQAPAKERELVAAITRGSTSYADSVKGRFTISRDNAKNTVYLQMNSLKPEDTAVYDCAADSSRYGVIRDFDYWGQGTQVTVSS | high polyreactivity |

| Sequence | polyreactivity (PSR sort gate) |
| --- | --- |
| QVQLVESGGGLVQAGGSLRLSCAASGSTFAIYAMGWYRQAPGKERELVAAITGRSGSTYYADSVKGRFTISRDNAKNTVYLQMNSLKPEDTAVYYCAAQGGYRRTPYIHRDYWGQGTQVTVSS | high polyreactivity |
| QVQLVESGGGLVQAGGSLRLSCAASGSTFAIYAMGWYRQAPGKERELVAAITRGSTSYADSVKGRFTISRDNAKNTVYLQMNCLKPEDTAVYYCAAEYFLAQVYIYGYWGQGTQVTVSS | high polyreactivity |
| QVQLVESGGGLVQAGGSLRLSCAASGSTFAIYGMGWYRQAPGKERELVAGITRGGSTNYADSVKGRFTISRDNAKNTVYLQMNSLKPEDTAVYYCNKVQRSTYYNGYDYWGQGTQVTVSS | high polyreactivity |
| QVQLVESGGGLVQAGGSLRLSCAASGSTFAKYAMGWYRQAPGKERELVASIRLSGGSTYYADSVKGRFTISRDNAKNTVYLQMNSLKPEETAVYYCNKQFATFYYCFDYYYWGQGTQVTVSS | low polyreactivity |
| QVQLVESGGGLVQAGGSLRLSCAASGSTFAKYVMGWYRQAPGKERELVAAISRRGSSTYYADSVKGRFTISRDNAKNTVYLQMNSLKPEDTAVYYCAARFRYSGFEGMDYWGQGTQVTVSS | high polyreactivity |
| QVQLVESGGGLVQAGGSLRLSCAASGSTFALYAMGWYRQAPGKERELVAAITRGDRTYYADSVKGRFTISRDNAKNTVYLQMNSLKAEDSAVYYCAAGYFGLWVRYDYWGQGSQVTVSS | low polyreactivity |
| QVQLVESGGGLVQAGGSLRLSCAASGSTFALYAMGWYRQAPGKERELVAVITSGGSTYYADSVKGRFTISRDNAKNTVYLQMNSLKPEDTAVYYCAARRHVRKGPLGYWGQGTQVTLSS | high polyreactivity |
| QVQLVESGGGLVQAGGSLRLSCAASGSTFAPNAMGWYRQAPGKERELVAGISWGDSTYYADSVKGRFTISRDNAKNTVYLQMNSLKPEDTAVYYCNVDDPFYSGVVEFDYWGQGTQVTVSS | low polyreactivity |
| QVQLVESGGGLVQAGGSLRLSCAASGSTFAPNTMGWYRQAPGKERELVAGITDGTITTYADSVKGRFTISRDNAKNTVYLQMNSLKPEDTAVYYCATRQSWYPRWMDYWGQGTQVTVSS | high polyreactivity |
| QVQLVESGGGLVQAGGSLRLSCAASGSTFAPYAMGWYRQAPGKETELVARITGSGGGTTYADSVKGRFTISRDNAKNTVYLQMNSLKPEDTAVYYCAAPRASQYGDDYWGQGTQVTVSS | high polyreactivity |
| QVQLVESGGGLVQAGGSLRLSCAASGSTFAQYAMGWYRQAPGKERELVAAISRGGGSTYYADSVKGRFTISRDNAKNTVYLQMNSLKPEDTAVYYCNARTSHYDKYGYWGQGTQVTVSS | high polyreactivity |
| QVQLVESGGGLVQAGGSLRLSCAASGSTFARNAMGWFRQAPGKEREFVASIRWGRGTTYYADSVKGRFTNSRDNAKNTLYLQLNSMIPEDSAVYYCATRNSSKRRGYYYWGQGTQVNVSS | high polyreactivity |
| QVQLVESGGGLVQAGGSLRLSCAASGSTFARNAMGWYRQAPGKERELVAAISSGGTTNYADSVKGRFTISRDNAKNTVYLQMNSLKPEDTAVYYCNAGFRNVLTSGYLYDYWGQGTQVTVSS | low polyreactivity |
| QVQLVESGGGLVQAGGSLRLSCAASGSTFASNAMGWYRQAPGKARELVAGISSSDGGTYYADSVKGRFTISRDIAKYNVYLEMKSLKPEDTAVYSCNAPPGTFQWQGHSDYWGQGTEVTVSS | low polyreactivity |
| QVQLVESGGGLVQAGGSLRLSCAASGSTFASNVMGWYRQAPGKERELVAAITRGDRTHYADSVKGRFTISRDNAKNTVYLQMNSLKPEDTAVYYCAARFIFWVYDYDYWGQGSQVTVSS | low polyreactivity |
| QVQLVESGGGLVQAGGSLRLSCAASGSTFASYAMGWYRQAPGKERELVAAIRWRGGTTYYADSVKGRFTISRDNAKNTVYLQMNSLKPDDTAVYYCNADRYYLYYYWGQGTQVTVSS | low polyreactivity |
| QVQLVESGGGLVQAGGSLRLSCAASGSTFATYAMGWYRPAPGKERELVAAITRGGRTNYADSVKGRFTISRDNAKNTVYLQMNSLKPEDTSVYYCAADYIYGYFWRFGYWGQGTQVTVSS | low polyreactivity |
| QVQLVESGGGLVQAGGSLRLSCAASGSTFATYAMGWYRQAPGKERELVAVITRGGRTYYADSVKGRFTISRDNAKNTVYLQMNSLKPEDTAVYYCAAKAYTYYARIGFDYWGQGTQVTVSS | high polyreactivity |
| QVQLVESGGGLVQAGGSLRLSCAASGSTFAVNAMGWYRQAPGKERELVAAISGSGGRTYYADSVKGRFTISRDNAKNTVYLQMNSLKPEETAFYYCATELRAPYRSSGAYHYDYWGQGTQVTVSS | low polyreactivity |
| QVQLVESGGGLVQAGGSLRLSCAASGSTFAYNAMGWYIQAPGKERELVAAISTSGGSTNYADSVKGRFTISRDMSKNTVYLQMNSLKPEVTAVYFCAARPKTPSITRYGYWGQGTHVTVSS | high polyreactivity |
